Experimental data: article PMC8033513, “Targeting netrin‐3 in small cell lung cancer and neuroblastoma” (EMBO Molecular Medicine, 2021)

B1: extra‐cellular domain (ECD) of rat UNC5H2 (Fc fusion)
chain: not shown
notes: UNC5H2 (UNC5B), rat, extracellular domain; The Fc is inferred from the capture on AHC biosensors in the antagonism test; also called rUNC5H2; UNC5‐B; source: recombinant
B2: extra‐cellular domain (ECD) of human UNC5H3 (domain or fragment)
chain: not shown
notes: UNC5H3 (UNC5C), human, extracellular domain; it may be an Fc chimera like the other ECDs; also called hUNC5H3; UNC5‐C; source: recombinant
B3: extra‐cellular domain (ECD) of human UNC5H1 (domain or fragment)
chain: not shown
notes: UNC5H1 (UNC5A), human, extracellular domain; it may be an Fc chimera like the other ECDs; also called hUNC5H1; UNC5A; source: recombinant
B4: chicken netrin‐2L (netrin‐2‐like) (ligand)
chain: not shown
notes: netrin-2 (netrin-2-like), chicken, used in place of human netrin-3 as its ortholog; Used because recombinant human netrin-3 was not soluble; also called NTN2L; NTN‐2L; source: recombinant

How the values were obtained:
[1] = molecular target: B4; assay: BLI; OctetRED96; netrin-1 or netrin-2 coated on HIS1K biosensors, UNC5 ECDs in solution at 3.12-100 nM; 30°C, 1,000 rpm, PBS, 0.02% Tween-20, 0.1% BSA; 5 min association, 5 min dissociation; 1:1 binding model; settings: both partners purified
[2] = molecular target: T1, extra‐cellular domain (ECD) of mouse DCC (mouse, UniProt P70211 26-1097); assay: BLI; OctetRED96; ECDs of mNeogenin or mDCC coated on AHC biosensors, hNetrin-1 or chNetrin-2 in solution at 3.12-100 nM; 30°C, PBS, 0.02% Tween-20, 0.1% BSA with 1 µg/ml Dextran 5,000; 1:1 binding model; settings: both partners purified
T1 construct: DCC (deleted in colorectal carcinoma), mouse, extracellular domain; The Fc is inferred from the capture on AHC biosensors; also called mDCC; source: recombinant
T1 sequence (P70211 26-1097): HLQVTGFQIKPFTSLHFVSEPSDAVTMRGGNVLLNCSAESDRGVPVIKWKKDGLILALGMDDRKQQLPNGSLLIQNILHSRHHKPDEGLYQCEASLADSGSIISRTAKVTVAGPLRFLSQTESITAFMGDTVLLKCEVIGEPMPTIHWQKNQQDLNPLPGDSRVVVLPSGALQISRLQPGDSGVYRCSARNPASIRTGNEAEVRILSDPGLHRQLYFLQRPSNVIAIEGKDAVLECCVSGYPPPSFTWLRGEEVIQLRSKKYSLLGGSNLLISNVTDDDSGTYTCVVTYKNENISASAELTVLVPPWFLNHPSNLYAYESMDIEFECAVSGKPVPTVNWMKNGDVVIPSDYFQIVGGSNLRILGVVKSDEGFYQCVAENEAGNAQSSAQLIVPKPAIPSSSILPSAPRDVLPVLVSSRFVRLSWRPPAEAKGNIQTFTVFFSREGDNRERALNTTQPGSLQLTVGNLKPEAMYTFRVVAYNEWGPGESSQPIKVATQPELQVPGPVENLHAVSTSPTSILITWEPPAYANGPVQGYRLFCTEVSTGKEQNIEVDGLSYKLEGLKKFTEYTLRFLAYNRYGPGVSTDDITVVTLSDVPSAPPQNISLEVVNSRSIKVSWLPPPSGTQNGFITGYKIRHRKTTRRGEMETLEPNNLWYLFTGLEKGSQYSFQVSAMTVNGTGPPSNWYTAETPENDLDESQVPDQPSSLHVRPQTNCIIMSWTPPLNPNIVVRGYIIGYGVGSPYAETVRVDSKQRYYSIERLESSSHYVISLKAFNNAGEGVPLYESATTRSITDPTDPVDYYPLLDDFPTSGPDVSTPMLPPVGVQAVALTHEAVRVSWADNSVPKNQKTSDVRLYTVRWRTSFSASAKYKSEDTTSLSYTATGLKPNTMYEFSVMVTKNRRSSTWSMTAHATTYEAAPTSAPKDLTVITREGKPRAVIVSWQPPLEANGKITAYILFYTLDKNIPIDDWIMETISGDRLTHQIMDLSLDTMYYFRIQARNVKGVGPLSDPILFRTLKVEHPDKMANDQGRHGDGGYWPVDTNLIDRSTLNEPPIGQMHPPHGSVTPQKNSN

B1
binding result [1]: binds

B2
binding result [1]: binds

B3
binding result [1]: binds

B4
binding result [2]: binds
